The data set is described as follows: label from the status in PepcDB records.
In the case of “MPKKDNFSILLMGIDARPGQSMDKERSDAMVLATFNRKDKSVKLLSIPRDSYVNIPGRGYDKITHAHSLGGRDLSTETVENLLDIPVDYVMEANFSAFKEVVDELGGVPITIKEDYIVRQIKKDTKGKVNLQTGEQTLGGEEALAYVRTRKADTDLKRGERQMEVIKSIINKSKSLTSIPAYDDILDTVGKNVSMNLSLNDAIGLIPFMTSIQTVDTLQLKGSDYQPGKVYYFQLDQENLNEIKQELKQQLDVLEHHHHHH”, the protein production result is “not failed”.

As to “MEPEEERIRYSQRLRGTMRRRYEDDGISDDEIEGKRTFDLEEKLHTNKYNANFVTFMEGKDFNVEYIQRGGLRDPLIFKNSDGLGIKMPDPDFTVNDVKMCVGSRRMVDVMDVNTQKGIEMTMAQWTRYYETPEEEREKLYNVISLEFSHTRLENMVQRPSTVDFIDWVDNMWPRHLKESQTESTNAILEMQYPKVQKYCLMSVRGCYTDFHVDFGGTSVWYHIHQGGKVFWLIPPTAHNLELYENWLLSGKQGDIFLGDRVSDCQRIELKQGYTFVIPSGWIHAVYTPTDTLVFGGNFLHSFNIPMQLKIYNIEDRTRVPNKFRYPFYYEMCWYVLERYVYCITNRSHLTKEFQKESLSMDLELNGLESGNGDEEAVDREPRRLSSRRSVLTSPVANGVNLDYDGLGKTCRSLPSLKKTLAGDSSSDCSRGSHNGQVWDPQCAPRKDRQVHLTHFELEGLRCLVDKLESLPLHKKCVPTGIEDEDALIADVKILLEELANSDPKLALTGVPIVQWPKRDKLKFPTRPKVRVPTIPITKPHTMKPAPRLTPVRPAAASPIVSGARRRRVRCRKCKACVQGECGVCHYCRDMKKFGGPGRMKQSCVLRQCLAPRLPHSVTCSLCGEVDQNEETQDFEKKLMECCICNEIVHPGCLQMDGEGLLNEELPNCWECPKCYQEDSSEKAQKRKMEESDEEAVQAKVLRPLRSCDEPLTPPPHSPTSMLQLIHDPVSPRGMVTRSSPGAGPSDHHSASRDERFKRRQLLRLQATERTMVREKENNPSGKKELSEVEKAKIRGSYLTVTLQRPTKELHGTSIVPKLQAITASSANLRHSPRVLVQHCPARTPQRGDEEGLGGEEEEEEEEEEEDDSAEEGGAARLNGRGSWAQDGDESWMQREVWMSVFRYLSRRELCECMRVCKTWYKWCCDKRLWTKIDLSRCKAIVPQALSGIIKRQPVSLDLSWTNISKKQLTWLVNRLPGLKDLLLAGCSWSAVSALSTSSCPLLRTLDLRWAVGIKDPQIRDLLTPPADKPGQDNRSKLRNMTDFRLAGLDITDATLRLIIRHMPLLSRLDLSHCSHLTDQSSNLLTAVGSSTRYSLTELNMAGCNKLTDQTLIYLRRIANVTLIDLRGCKQITRKACEHFISDLSINSLYCLSDEKLIQKIS”, the protein production entry is recorded as “failed”.

As for “VFVGRCTGDMTEDELREFFSQYGDVMDVFIPKPFRAFAFVTFADDQIAQSLCGEDLIIKGISVHISNAEPKHNSN”, the protein production entry is given as “not failed”.

Regarding “MARPLVPSSQKALLLELKGLQEEPVEGFRVTLVDEGDLYNWEVAIFGPPNTYYEGGYFKARLKFPIDYPYSPPAFRFLTKMWHPNIYETGDVCISILHPPVDDPQSGELPSERWNPTQNVRTILLSVISLLNEPNTFSPANVDASVMYRKWKESKGKDREYTDIIRKQVLGTKVDAERDGVKVPTTLAEYCVKTKAPAPDEGSDLFYDDYYEDGEVEEADSCFGDEEDDSGTEES”, the protein production result is “failed”.

On to “MAEHIITLVLSGERLDVTTSTPFVVALRDLLYEGDWELLKEDMKKKENIMKEVQTCEKLEKVVHLDETVYEPLIFPEFQEWLREENITPKDFKNVSLKGLYDLALEYADRNLYDIAHDIIKFMLDIDENYAPAYELKGSLLVEQGKIEEGIKFLDKAVEIDPWLVQAYASLGEAYYNLGDYEKAIHYWERELEYNPNDKITYFMITEAYYEMNRKDLAVKTLERLLEIDPDNIPALYQLSQLYRELGNEEKAREMEEKIMNCKPKYPTELEPWARVMLKHGRYKEVAEELEKIVESSPLNTLARLLLVVPYVKLGQIDKAREILDDIGQSNFWYYYGKKEILDELLTEEEKRACGIS”, for which the protein production result is “failed”.

Turning to “MAHEGEQFIKDIQREYVDFLDDEEDQGIYAGHVKDMIAEKSKRLIVNVNDLKRKNPQRALGLLSNAADEQLAFGRALKEYASTVDPGYAKMHEDLFVGFEGCFGNRHVTPRSLTSIYLGNMVCVEGIVTKVSLIRPKVVRSVHYCPNTRKVMERKYTDLTSFEAVPSGAAYPTKDEDGNLLETEYGLSVYKDHQTLTIQEMPEKAPAGQLPRSVDIVCDDDLVDRCKPGDRVQIVGSYRCLPGKRGGYTSGTFRTVLLANNISLLSKESNLDISREDIMLCKKLAKNNDIFELLSKSLAPSIHGHAYVKQAILCLLLGGVEKILPNGTRLRGDINVLLIGDPSVAKSQLLRYVLNTAPRAIPTTGRGSSGVGLTAAVTTDQETGERRLEAGAMVLADRGVVCIDEFDKMSDIDRTAIHEVMEQGRVTISKAGIHASLNARCSVLAAANPVYGRYDQYKTPMENIGLQDSLLSRFDLLFVMLDVIDSDVDQMISDHVVRMHRYRNPKEADGEPLSMGSSYADSLSFVSSSEEKKDTEVYEKYDALLHGKSRQRHEKILSVEFMRKYIHIAKCMKPKLGEQACEAIANEYSRLRSQEAVETDVARTQPITARTLETLIRLSTAHARARMSKSVTIDDAHAAIELVQFAYFKKVLDKDRPSKRRRNSGSDAEDDNGEASSQRSPSRRSKRTRTATVGADSDEEDIEPPQPDAGDLTRRETRRSLPARSVAMLMASPSSEEQSVATSTTEPAIISDARLGEFKNNLQRLFREAREQSLALARITTAINVGSQEPFTAGEIEAAVHRMTEDNQIMVADDIVFLI”, the protein production result is “failed”.

On to “MMGDSVIYYVEQADEPVNRADERARKTFKYFWRELFWERRRIISALDFAMVKVPFFQDGEDGEICEHMWIDDIYFDGLYIYGVLNNEPGELTNVEQGESVCVPVDDISDWMFVCNGIPYGGFTIQAMRGQMTEEERTEHDAAWGIDFGDPGQILLVYEEKEHPENLEEHPMCRNCIDDFRQQLSQNSDYLREQDEDGYTPLHHEAIAGNALMVQAMLEYGANPASTTSEGYTALDFACLTGWQNVADLLEPRH”, for which the protein production entry is recorded as “failed”.

In the case of “MTCDQIPGRMRVKAERTPFRCPTPVKRKKAMSSAMPQPETTPILACTVSRDVQNFDLLIEDMEAAMGESWGDLGFAEALAFFGQPESESLEFIALAIDTEDEDNLVLMGEIITQAKSRGIKVILIAEDVTPASLHQLLRKGADEFVPYPLPERELQSAIDRMSKPEPEQAQTHHNTAHLNKGAAREGALIVVHGLAGGTGSTTMAVNLAWELANIGGEDAPSVCLMDLDLQHGSVSTYLDLPRREAVFEMLSETQSMDEEVFGQALLSFEDKLQVLTAPSDMVPLDILSPEDIQRVIEMARAHFDYVIVDMPKTLVQWSETILQAAHVYFAMIELDMRSAQNALRMKRALQSEDLPFNKLRFALNKAPKFTDLSGKSRVKRMGESLGISIDLQLPDGGKQVTQGADHGLPLATSAPKNPLRREIAKLAQSLHELGRSDAKAA”, the protein production result is “failed”.

Turning to “MIRGGRNNITSAPAFSKDAKKLLLCTANTVSVYSVATGLKITSLEDHTAPVTSVIVDPSSDETVSYCWTSSLDGKIRIWEFSAPKLLKIFDTHLPIHSLVMIPAQVSHSVIAYVSVEDYSSVSKDLFGQIRRYDLTQDPLHSGDTLKEMEEPKPIVLSPSGEFFGVCHNCSIHIWNVASEHLMPKETTLHHTELITVFAFHPNQRILAAGDVTGRVLIWKDNGIGEFTSVKTEDDTESCTTFNWHSAEVTVLNFSSDGALLYSGVKAGDFVVWELGTGKKQLLPKIGSPLLYFIFSSDSTLSSVICADNQIHLLKMPSMEILRTISGIKPPTPERHGFICYVKTRDICLTRTVSIDRSSGIAAFCTANHRVQLYNLLSDHDISEVQICDHHPDDDDQVRVLVTAVALSRNGSVMTTAEARFAASNFSEGIVSLKFWVFVPDSKTFSLSTVINQPHREAAITAIALNPARSMAVSISSAGDFKIWVCSSDKNLTPEDSNWICHGVGSYKRTPITAAVFSGDGSCLALAAKTVITIWHPLKNELLYVVGKANAPIMELSFTGGGFLIAASHGSTPHLSVWDLMTFCLSWSYRLYIEAIATEVDSPYFAVLTWLPESDRLVKSNEQIFRGKDGAILLFDGSGPKPVAIWTVMKARGGTLSFVEDGKKSQPLLAYVNRSHEYVLFDPYSDEKLETSAIDYEVFLAAISKKKKRSRKKALMSEKPWETMFCGSTLNFPPFPDLCASFFSSRMQKEVCERADRQPERHSS”, the protein production entry is listed as “failed”.

Consider “SNQLQQLQNPGESPPVHPFVAPLSYLLGTWRGQGEGEYPTIPSFRYGEEIRFSHSGKPVIAYTQKTWKLESGAPMHAESGYFRPRPDGSIEVVIAQSTGLVEVQKGTYNVDEQSIKLKSDLVGNASKVKEISREFELVDGKLSYVVRMSTTTNPLQPHLKAILDKL”, for which the protein production entry is given as “not failed”.

In the case of “MLSKIRPKVKQPLERIGKTLASLGITPNQLTIIGFLITLLASYEFYLQNQILAGIILAVGAFLDALDGALARATGKVSKFGGFLDSTIDRLSDASILFGIALGGLVRWDVTFLTLIGSYMVSYSRCRAELAGSGTLAIGIAERGERIIIIFIASLFNAVKIGVYLVAILSWITFIQRVYEAKKRLEMG”, the protein production result is given as “failed”.

As to “MATGLGFFKLSFLLSLLSGGSDLLGPDAESGVAQIGKFPPSCNRIECPSYELVHSGNGYEIRRYNNTVWVSTEPIPDISLVDATRTAFFQLFAYIQGKNEYHQKIEMTAPVISQVSPSDGPFCESSFTVSFYVPKKNQPDPAPSENLHIQKWNSRYVAVRQFSGFVSDDSIGEQAAALDSSLKGTAWANAIAKSKEDGGVGSDSAYTVAQYNSPFEFSGRVNEIWLPFELDV”, the protein production result was “failed”.

“MPWKNTESRYSTMTIALHWLMLVLLAVVYACIEFRGIFPKGSGGRTLIVEAHFMLGLTVFALVWLRLFARAQGVAPKILPTPPHWQRLLSTLMHWALYLFMIAMPILGWLTTSAKGHQVMFYGLDLPLLLAENKPLAKQLQGWHELLGTVGYWLIGLHALAGLYHHYVMRDNTLQRMWRKRGQA”: the protein production entry is recorded as “failed”.

Turning to “MRFRQLLPLFGALFALYIIWGSTYFVIRIGVESWPPLMMAGVRFLSAGMLLMAFLLLRGEKLPPLRQTINAALIGLLLLAVGNGLVTVAEHQNVPSGIAAVVVATVPLFTLCFSYFFGIKTRKLEWVGIAIGLAGIILLNSGGNLSGNPWGAILILIGSMSWAFGSVYGSRIALPVGMMAGAIEMLAAGVVLLCAAFLSGEKLATLPGLSGLMAVGYLALFGSIIAINAYMYLIRNVSPALATSYAYVNPVVAVLLGTGLGGERLSPVEWAALGVIVFAVVLVTLGKYLFPARAVVTPCKTEDSRQ”, the protein production result is given as “failed”.

For “MKFKNILFDFDDTLVDFYDAEKKAFYNLAQKYNHQPTQQDFEHFKKVNQAHWEAFQQNKLTKDEVLSQRFINYFNDYQIHVNGKEADKCFRAELAMAPVKLFDHTLEVIQQLKLNHSLYIVTNGVTETQLRRIAQTQFNEIFQDVFISEKAGFQKPMTEFFDFVFEHIGENNRNQTLIVGDSLTSDILGGKNANISTCWFNIRQKENHTSIQPDYIINDLSEMIRIVE”, the protein production entry is listed as “failed”.

On to “MAVSSLGNIYCAAAGFHSVPIVICQTSCVRWRGSGRTSGAICCAECVARGSDVRAYFRGQDKDAVGKDAVAPGVGCVQPVAIGIHAGLYRWRDRLRIGIDGDHARCRPDVAHGELDVGASAVPRRGSHGHRGRARAGGLVQELSVREQPPVDHRHLRAVLRLAGAAALLTQGRNAQGAVRELVCARYRHAVSGPRQPQGRGTGATSGGCVVAPGQTVVSVSRRHPQPHRRIIAIQGRATAGCYRCWRAGGSGGAGRLRQGVAGRWPVQGAPRHHPRADRYADRCDRAGCAGSPTIDRAGTQGRGCNASPQDLSSTLMDFVVPHDHPCLPGHFPGRPVVPGVVVLDHVLQAVEALHGPRAAARLPQVKFVQPLLPGQTASVTLEGDGPRWRFRVQRADVVLVSGELVAEAGT”, for which the protein production entry is “failed”.

As for “MMNYRKADMKDISLLVSIRKRQLIDEGIEPNIDIDKELTRYFNNKLANNLLVEWIAEENNQIIATAAIAFIDFPPTYTNKTGRKGYITNMYTEPTSRGNGIATGMLDRLVNEAKERNIHKICLVASKLGRPVYKKYGFQDTDEWLELNLLEHHHHHH”, the protein production result is “failed”.

The record behind these values is a protein production outcome set (Wang et al. 2014).
